In the domain aggregation screens of Martell et al. (2025):

Assay: soluble fraction after stress (log2 fold change); higher = more stays soluble; pooled small domains, quantitative proteomics
Conditions: stress: 75 degC
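Further: 20 min heating vs room temperature control held 20 min.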

Sequence | soluble fraction (log2)
HMSFEITGDELILRFVKDKGGATTEQIRKHWEASNRGGKSDNNLTNLVKSGKLLRSKDPNGPGSLYTAS | -0.0632
HMSFESMGLTPRQADVLTLLLQGKSNKDIARRLVLSVETVKDHVQAVLRALGVSSRTQAVLAVGQMTQQ | -0.584
HMSFGYFQLRAKDPQKLKSVLEKIPQIQSIKEEKGDLIGYLNADMEAEELSQKLAAAKIFVTHMAKKK | -0.583
HMSFISRMVVAVEDIALSTRPNSTPSGDKYVSKGTVLLMEKRENDWVEVRQPSSPLSGWAPKTSLLSV | -0.246
HMSFNLSETKKLILEEIQKGVSSVTQIAATAGISKGMTYNHLRELKLMGYIADGDSGYVITDAGKIAS | -0.448
HMSFRYLHVKRQLMSLIGTMNAHERLPSRTDLSETFQVARTTIERAISELIGEGWLYARDGSGTYVAER | -3.45
HMSFSTHHEYYIYNLAVDMRKGYDGLSGLVVNELGRQPWDGSVYVFFNTMRDKVKLLVWDTDGYVIYSKR | -0.279
HMSFTDLILKSANAIDEMGGIWENGKQILGEKAIAIHEEIVDNGLNPDKDGFYKLANGQMIQYG | 0.0518
HMSFVEVTVSELKNYVNSHARIKLKSGKEFKGFILDANEEGVIIKVQLRGGTAESTISYNRIDRAAVF | -4.01
HMSGAERAAALLVALGPEVASEIMKFLDDESIQKLASEIAKIEVLSPQEKEDLIGQFLLELKKT | -0.419
HMSGAWEVGLLRQFTDWMGTQYNAYAGRNFDAITVAQVAEKNPELLTPFVESFFKERVEPALAAG | -1.08
HMSGEDYLERILMLKEKHGNVRAIDIANSMNFSKPSVSIALHKLSENGYVVIQNNGAIELTEKGLEVAT | -0.455
HMSGEIPFPPAFKPSADHIAIASEKGINIETELLNFRDYHQARGTKLIDWNSAFRVWLRNAR | -0.531
HMSGEITVPNLIGVEAIQAKTLLIQAGFLIKEFYDLDSTQPAGVVIRQAPEAGTTQTIGKSVTITINKQ | -1.25
HMSGENAVLTEGTMVTVRRGGETITATARKETVKQFLSRMDIIPGSREMVGIELMENSVMLTISD | -0.889
HMSGFPTDAQIVREIRNILPTLENPTPRMVRKALENTFEVDMGESKTKKYINNIIITEYEKWSSVQSIRE | -0.603
HMSGGNTSAFKGKLNYEYRGNDTIITGSTYPVKELIKKAGGRWDPGSSAWIIKGRHVSDNEIF | 0.054
HMSGQKDVPDLYGMTVKQAKKEVEAAGFKLKEGKEVYSNDYSKGQIAEQDPESGSKAKKGSSITVHVSKG | 0.0162
HMSGRIWTDNYGRTIEADVIKVNINRTVLLEFTDKKTKTVSFDTFISKDIQYLEYLLTRRNRGKL | -3.98
HMSGRVPTADDIAVGMKVYVPRLGGTGTVVTEPVRDKVVIQVGSLRLHAEVAELLLPDEHGRIQVPR | -0.844
HMSGTGSYVALLRDPQGNVGKVVVKGSKGEQVLSQPQQAARLDGATPSYEVTGRQIAEDFGRALAV | 0.144
HMSGTYIATVEAGSLDIYKSMTSNETIGKASRGDVFQILEDMGSGYARVSYNDVEGYMSIKTGDASIEEL | 0.113
HMSGVSESIEKKIQYLLLEKPLPLHDLIEAIEIGKEEDRLKVLRSLMDSDTVKIEDDLYHWNA | -0.133
HMSGYSTLFTRMSREDAQAVVSLLQDDGIEYRYNDDTGTVQVPSATVDQTRAKLVSAGYPRS | -0.268
HMSHANAALTPRARLRLAKLIVEEHWPVATAAKMFMVSPPTARKWATRFRAEGPAGMADRSSRP | -1.63
HMSHFRMLPSITEADAFLKSRSLPAGLEVREQVDAFLAQARQTLALAQEAPWLSKQEVLETLADEFVQTS | -0.652
HMSHFSERLKSLRQQSSITQAKLADDLNVTKSLISMYESGQRLPSFEMLETIADYFNVPLSSLV | -0.541
HMSHGFFTLQSDDLNLLRTVLEGHSSIGDIKIEGIQLVAYLKEPLNGAELNKILFEKGINLSYLVHRK | -2.9

Sequence | soluble fraction (log2)
HMSHGFVHLKGAVQHPGIYPVKENTRWDEVVKAAGGLTAAADIQQVNLAKVASDQESLYVPEKGET | 0.149
HMSHGSIYFSGKTGLKGSVDINGTVNSINKKIFLKPGNYNFLIKADGYKNLKGSFQISKGDKKFVELVLIP | -2.1
HMSHGYVELKAENNDALISALENHTWFENIKLDPETNLVKAILTKPIEAENLNKMLFEKGIILSHLVKRK | -0.376
HMSHYDILEVDPKASATEIKQSFRKKSLQYHPDRNKSSDAHEYMTKITEAYNILGDKDKRRHYDMELKL | 0.568
HMSHYEYKVGDRVNLLDYDDFGILYKEKDNFYNVVVYYNGEFVEVNVKRITLEVAAKELYPEGYDLSTLFV | -3.97
HMSIASASVKEKIRDIVSSEPPQKPFSDAKIAEILAEDGIAIARRTVAKYREEIGIPTKSLRKR | -0.0706
HMSIDNALLTLIGKTGTAQTVLRPSGKVVIGDEVYDAVTAGEFIDKGSAIVVTRVEATQLYVEASEA | -0.411
HMSIELEISADGNNYRVSGLSDGEDVRVYSVSGVQVFSGKAQGGEVVIPADNWNKGIYVISAGGSSVKVL | -0.594
HMSIGLEDLIEQKGVADTDLRPSGWINVGNQRIFVVTEGSYIDQNDNVIILSVDGNRVVVRKI | -1.2
HMSIGLEELVGSHGEAITDLRPAGQVSIAARRISAVSEGDFINKGDSVEVLSVEGYRVMVRKLET | -0.34
HMSIITLFQEINAAVAEATGGRVPESVVQNFILGKDVVIPEDVKEIIISKLKAFATDIEGMLEESGFD | -2.62
HMSILDEAEFKKIESALLDFITNNIFTVKELLQASRGIKQDKFWKVFQFLQSERKVVVNELGYIEL | -0.287
HMSILSIGLERGMKKGVAWGIAKSILDILEETGPVSEKTREMIVTETDAERLSAWVKKAARSNSEEDFLSK | -0.799
HMSILSRREHEIMQWVKGGKTNIEIAQILGISARTVRNHLQNVFRKLDVINRAQAVFEVERRR | -2.68
HMSIMNEQIREILNQQVTKTSKIQQLLLLGLTRRQVADLVTNGNYGFVQNVYRNMLDAGIFTP | -1.13
HMSIMNLSEKIVVLRKSNGMSQEELAEKLYVSRQAVSRWEMGTAVPDSTNILQLGKLFHVTTDYLLNDEYE | -3.36
HMSINQIADKGYITRLIDNNANIKDVLYYDASSRILAIEDPKYMFYLKNTDWNQFAKEMGFKLE | -0.794
HMSINTLEVHSLKALENLAESPLLISFSYENEEYNYRLASSDVSLLKKISSNYSDDSDIKGLRFIS | -0.893
HMSIQQEATGNRIRELLLNNGYTVKDIQEVMGFENPQAVYKWLSGKSLPNLDNLLILSKVLHTSIEDILV | -1.09
HMSISSIDFENLKSDELSDAQITQIYRQAQEQGLSIDELSSLAIARGMSPTEVAKLRSRFNSIP | 0.0936
HMSIVVPDLRGKTLEEARAILKEADLDFEINDSTFSKTARPGTIRDVVPSPGSRVKAGRILFISINGF | -0.781
HMSIYQYFNISEINSIDDLKKQYFKLAKKYHPDAGGDKVSFQELQNEYEQLTKKILSGAELNADELKTE | -0.126
HMSKASLFFLFNHKDELYIVDNNHVQDVPKPRELIRRFSTIEQIREHALHLGLPIANDTARE | -3.31
HMSKEGLASLLEDINGLGAIRRKTLIDHFGSVAKIRGARPEEIAALPGMGRKIAEHILASLRED | -0.541
HMSKEKQILQLLQHGYSQRRIADTLSVSRNTVAKVAKAAIEHPVSSDSLDSIDELELHQKLFPEEVLI | -0.486
HMSKGKNEVIAYLKAHNDHRLTVAEILDGLKEEGISINRSTIYRNLDKLVENGDILAFKGKDSESAFYQYS | 0.0611
HMSKHLWNKVLPKVTTANITNLINQAIRKGEWRMDNKGVVHIIWRYRGKIIEVTGYLKDKVFNVGNAWVR | 0.226
